* marks the point of attachment. C18 diacid = O=C(O)CCCCCCCCCCCCCCCCC(=O)*

First the molecules themselves.
B1: [N-terminal(C18 diacid), 9V, 28P]mimylin (peptide)
peptide: {C18 diacid}-EASELSTAVLGRLSAELHELATLPRTEPGPESP-NH2
SMILES: CC(C)C[C@H](NC(=O)[C@H](CCC(=O)O)NC(=O)[C@H](Cc1c[nH]cn1)NC(=O)[C@H](CC(C)C)NC(=O)[C@H](CCC(=O)O)NC(=O)[C@H](C)NC(=O)[C@H](CO)NC(=O)[C@H](CC(C)C)NC(=O)[C@H](CCCNC(=N)N)NC(=O)CNC(=O)[C@H](CC(C)C)NC(=O)[C@@H](NC(=O)[C@H](C)NC(=O)[C@@H](NC(=O)[C@H](CO)NC(=O)[C@H](CC(C)C)NC(=O)[C@H](CCC(=O)O)NC(=O)[C@H](CO)NC(=O)[C@H](C)NC(=O)[C@H](CCC(=O)O)NC(=O)CCCCCCCCCCCCCCCCC(=O)O)[C@@H](C)O)C(C)C)C(=O)N[C@@H](C)C(=O)N[C@H](C(=O)N[C@@H](CC(C)C)C(=O)N1CCC[C@H]1C(=O)N[C@@H](CCCNC(=N)N)C(=O)N[C@H](C(=O)N[C@@H](CCC(=O)O)C(=O)N1CCC[C@H]1C(=O)NCC(=O)N1CCC[C@H]1C(=O)N[C@@H](CCC(=O)O)C(=O)N[C@@H](CO)C(=O)N1CCC[C@H]1C(N)=O)[C@@H](C)O)[C@@H](C)O
B2: [N-terminal(C18 diacid), 9L, 10A]mimylin (peptide)
peptide: {C18 diacid}-EASELSTALAGRLSAELHELATLPRTETGPESP-NH2
SMILES: CC(C)C[C@H](NC(=O)[C@H](C)NC(=O)[C@@H](NC(=O)[C@H](CO)NC(=O)[C@H](CC(C)C)NC(=O)[C@H](CCC(=O)O)NC(=O)[C@H](CO)NC(=O)[C@H](C)NC(=O)[C@H](CCC(=O)O)NC(=O)CCCCCCCCCCCCCCCCC(=O)O)[C@@H](C)O)C(=O)N[C@@H](C)C(=O)NCC(=O)N[C@@H](CCCNC(=N)N)C(=O)N[C@@H](CC(C)C)C(=O)N[C@@H](CO)C(=O)N[C@@H](C)C(=O)N[C@@H](CCC(=O)O)C(=O)N[C@@H](CC(C)C)C(=O)N[C@@H](Cc1c[nH]cn1)C(=O)N[C@@H](CCC(=O)O)C(=O)N[C@@H](CC(C)C)C(=O)N[C@@H](C)C(=O)N[C@H](C(=O)N[C@@H](CC(C)C)C(=O)N1CCC[C@H]1C(=O)N[C@@H](CCCNC(=N)N)C(=O)N[C@H](C(=O)N[C@@H](CCC(=O)O)C(=O)N[C@H](C(=O)NCC(=O)N1CCC[C@H]1C(=O)N[C@@H](CCC(=O)O)C(=O)N[C@@H](CO)C(=O)N1CCC[C@H]1C(N)=O)[C@@H](C)O)[C@@H](C)O)[C@@H](C)O
B3: [N-terminal(C18 diacid), 9V, 25P]mimylin (peptide)
peptide: {C18 diacid}-EASELSTAVLGRLSAELHELATLPPTETGPESP-NH2
SMILES: CC(C)C[C@H](NC(=O)[C@H](CCC(=O)O)NC(=O)[C@H](Cc1c[nH]cn1)NC(=O)[C@H](CC(C)C)NC(=O)[C@H](CCC(=O)O)NC(=O)[C@H](C)NC(=O)[C@H](CO)NC(=O)[C@H](CC(C)C)NC(=O)[C@H](CCCNC(=N)N)NC(=O)CNC(=O)[C@H](CC(C)C)NC(=O)[C@@H](NC(=O)[C@H](C)NC(=O)[C@@H](NC(=O)[C@H](CO)NC(=O)[C@H](CC(C)C)NC(=O)[C@H](CCC(=O)O)NC(=O)[C@H](CO)NC(=O)[C@H](C)NC(=O)[C@H](CCC(=O)O)NC(=O)CCCCCCCCCCCCCCCCC(=O)O)[C@@H](C)O)C(C)C)C(=O)N[C@@H](C)C(=O)N[C@H](C(=O)N[C@@H](CC(C)C)C(=O)N1CCC[C@H]1C(=O)N1CCC[C@H]1C(=O)N[C@H](C(=O)N[C@@H](CCC(=O)O)C(=O)N[C@H](C(=O)NCC(=O)N1CCC[C@H]1C(=O)N[C@@H](CCC(=O)O)C(=O)N[C@@H](CO)C(=O)N1CCC[C@H]1C(N)=O)[C@@H](C)O)[C@@H](C)O)[C@@H](C)O
B4: [N-terminal(C18 diacid), 3P, 9V]mimylin (peptide)
peptide: {C18 diacid}-EAPELSTAVLGRLSAELHELATLPRTETGPESP-NH2
SMILES: CC(C)C[C@H](NC(=O)[C@H](CCC(=O)O)NC(=O)[C@H](Cc1c[nH]cn1)NC(=O)[C@H](CC(C)C)NC(=O)[C@H](CCC(=O)O)NC(=O)[C@H](C)NC(=O)[C@H](CO)NC(=O)[C@H](CC(C)C)NC(=O)[C@H](CCCNC(=N)N)NC(=O)CNC(=O)[C@H](CC(C)C)NC(=O)[C@@H](NC(=O)[C@H](C)NC(=O)[C@@H](NC(=O)[C@H](CO)NC(=O)[C@H](CC(C)C)NC(=O)[C@H](CCC(=O)O)NC(=O)[C@@H]1CCCN1C(=O)[C@H](C)NC(=O)[C@H](CCC(=O)O)NC(=O)CCCCCCCCCCCCCCCCC(=O)O)[C@@H](C)O)C(C)C)C(=O)N[C@@H](C)C(=O)N[C@H](C(=O)N[C@@H](CC(C)C)C(=O)N1CCC[C@H]1C(=O)N[C@@H](CCCNC(=N)N)C(=O)N[C@H](C(=O)N[C@@H](CCC(=O)O)C(=O)N[C@H](C(=O)NCC(=O)N1CCC[C@H]1C(=O)N[C@@H](CCC(=O)O)C(=O)N[C@@H](CO)C(=O)N1CCC[C@H]1C(N)=O)[C@@H](C)O)[C@@H](C)O)[C@@H](C)O
B5: [N-terminal(C18 diacid), 9V, 10I]mimylin (peptide)
peptide: {C18 diacid}-EASELSTAVIGRLSAELHELATLPRTETGPESP-NH2
SMILES: CC[C@H](C)[C@H](NC(=O)[C@@H](NC(=O)[C@H](C)NC(=O)[C@@H](NC(=O)[C@H](CO)NC(=O)[C@H](CC(C)C)NC(=O)[C@H](CCC(=O)O)NC(=O)[C@H](CO)NC(=O)[C@H](C)NC(=O)[C@H](CCC(=O)O)NC(=O)CCCCCCCCCCCCCCCCC(=O)O)[C@@H](C)O)C(C)C)C(=O)NCC(=O)N[C@@H](CCCNC(=N)N)C(=O)N[C@@H](CC(C)C)C(=O)N[C@@H](CO)C(=O)N[C@@H](C)C(=O)N[C@@H](CCC(=O)O)C(=O)N[C@@H](CC(C)C)C(=O)N[C@@H](Cc1c[nH]cn1)C(=O)N[C@@H](CCC(=O)O)C(=O)N[C@@H](CC(C)C)C(=O)N[C@@H](C)C(=O)N[C@H](C(=O)N[C@@H](CC(C)C)C(=O)N1CCC[C@H]1C(=O)N[C@@H](CCCNC(=N)N)C(=O)N[C@H](C(=O)N[C@@H](CCC(=O)O)C(=O)N[C@H](C(=O)NCC(=O)N1CCC[C@H]1C(=O)N[C@@H](CCC(=O)O)C(=O)N[C@@H](CO)C(=O)N1CCC[C@H]1C(N)=O)[C@@H](C)O)[C@@H](C)O)[C@@H](C)O
B6: [N-terminal(C18 diacid), 9V, 18A]mimylin (peptide)
peptide: {C18 diacid}-EASELSTAVLGRLSAELAELATLPRTETGPESP-NH2
SMILES: CC(C)C[C@H](NC(=O)[C@H](CCC(=O)O)NC(=O)[C@H](C)NC(=O)[C@H](CO)NC(=O)[C@H](CC(C)C)NC(=O)[C@H](CCCNC(=N)N)NC(=O)CNC(=O)[C@H](CC(C)C)NC(=O)[C@@H](NC(=O)[C@H](C)NC(=O)[C@@H](NC(=O)[C@H](CO)NC(=O)[C@H](CC(C)C)NC(=O)[C@H](CCC(=O)O)NC(=O)[C@H](CO)NC(=O)[C@H](C)NC(=O)[C@H](CCC(=O)O)NC(=O)CCCCCCCCCCCCCCCCC(=O)O)[C@@H](C)O)C(C)C)C(=O)N[C@@H](C)C(=O)N[C@@H](CCC(=O)O)C(=O)N[C@@H](CC(C)C)C(=O)N[C@@H](C)C(=O)N[C@H](C(=O)N[C@@H](CC(C)C)C(=O)N1CCC[C@H]1C(=O)N[C@@H](CCCNC(=N)N)C(=O)N[C@H](C(=O)N[C@@H](CCC(=O)O)C(=O)N[C@H](C(=O)NCC(=O)N1CCC[C@H]1C(=O)N[C@@H](CCC(=O)O)C(=O)N[C@@H](CO)C(=O)N1CCC[C@H]1C(N)=O)[C@@H](C)O)[C@@H](C)O)[C@@H](C)O
B7: [N-terminal(C18 diacid), 4P, 9V]mimylin (peptide)
peptide: {C18 diacid}-EASPLSTAVLGRLSAELHELATLPRTETGPESP-NH2
SMILES: CC(C)C[C@H](NC(=O)[C@H](CCC(=O)O)NC(=O)[C@H](Cc1c[nH]cn1)NC(=O)[C@H](CC(C)C)NC(=O)[C@H](CCC(=O)O)NC(=O)[C@H](C)NC(=O)[C@H](CO)NC(=O)[C@H](CC(C)C)NC(=O)[C@H](CCCNC(=N)N)NC(=O)CNC(=O)[C@H](CC(C)C)NC(=O)[C@@H](NC(=O)[C@H](C)NC(=O)[C@@H](NC(=O)[C@H](CO)NC(=O)[C@H](CC(C)C)NC(=O)[C@@H]1CCCN1C(=O)[C@H](CO)NC(=O)[C@H](C)NC(=O)[C@H](CCC(=O)O)NC(=O)CCCCCCCCCCCCCCCCC(=O)O)[C@@H](C)O)C(C)C)C(=O)N[C@@H](C)C(=O)N[C@H](C(=O)N[C@@H](CC(C)C)C(=O)N1CCC[C@H]1C(=O)N[C@@H](CCCNC(=N)N)C(=O)N[C@H](C(=O)N[C@@H](CCC(=O)O)C(=O)N[C@H](C(=O)NCC(=O)N1CCC[C@H]1C(=O)N[C@@H](CCC(=O)O)C(=O)N[C@@H](CO)C(=O)N1CCC[C@H]1C(N)=O)[C@@H](C)O)[C@@H](C)O)[C@@H](C)O
B8: [N-terminal(C18 diacid), 2P, 9V]mimylin (peptide)
peptide: {C18 diacid}-EPSELSTAVLGRLSAELHELATLPRTETGPESP-NH2
SMILES: CC(C)C[C@H](NC(=O)[C@H](CCC(=O)O)NC(=O)[C@H](Cc1c[nH]cn1)NC(=O)[C@H](CC(C)C)NC(=O)[C@H](CCC(=O)O)NC(=O)[C@H](C)NC(=O)[C@H](CO)NC(=O)[C@H](CC(C)C)NC(=O)[C@H](CCCNC(=N)N)NC(=O)CNC(=O)[C@H](CC(C)C)NC(=O)[C@@H](NC(=O)[C@H](C)NC(=O)[C@@H](NC(=O)[C@H](CO)NC(=O)[C@H](CC(C)C)NC(=O)[C@H](CCC(=O)O)NC(=O)[C@H](CO)NC(=O)[C@@H]1CCCN1C(=O)[C@H](CCC(=O)O)NC(=O)CCCCCCCCCCCCCCCCC(=O)O)[C@@H](C)O)C(C)C)C(=O)N[C@@H](C)C(=O)N[C@H](C(=O)N[C@@H](CC(C)C)C(=O)N1CCC[C@H]1C(=O)N[C@@H](CCCNC(=N)N)C(=O)N[C@H](C(=O)N[C@@H](CCC(=O)O)C(=O)N[C@H](C(=O)NCC(=O)N1CCC[C@H]1C(=O)N[C@@H](CCC(=O)O)C(=O)N[C@@H](CO)C(=O)N1CCC[C@H]1C(N)=O)[C@@H](C)O)[C@@H](C)O)[C@@H](C)O

This assay concerns the target T1, human amylin receptor (human calcitonin receptor + human RAMP3) (human) (UniProt P30988).
T1 sequence (looked up) 1: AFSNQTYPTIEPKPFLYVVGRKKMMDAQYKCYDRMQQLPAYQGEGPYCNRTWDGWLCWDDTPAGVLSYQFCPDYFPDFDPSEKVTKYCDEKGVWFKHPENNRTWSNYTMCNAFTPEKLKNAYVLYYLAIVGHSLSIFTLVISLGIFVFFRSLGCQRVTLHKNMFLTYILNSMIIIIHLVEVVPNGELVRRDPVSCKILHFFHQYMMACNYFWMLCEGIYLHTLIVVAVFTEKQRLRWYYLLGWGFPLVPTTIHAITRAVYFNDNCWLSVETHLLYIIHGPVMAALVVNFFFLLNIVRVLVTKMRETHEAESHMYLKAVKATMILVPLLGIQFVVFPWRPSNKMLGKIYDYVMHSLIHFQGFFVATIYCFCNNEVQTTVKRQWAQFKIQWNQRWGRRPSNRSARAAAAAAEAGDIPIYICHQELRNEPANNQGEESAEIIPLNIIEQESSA
T1 sequence (looked up) 2: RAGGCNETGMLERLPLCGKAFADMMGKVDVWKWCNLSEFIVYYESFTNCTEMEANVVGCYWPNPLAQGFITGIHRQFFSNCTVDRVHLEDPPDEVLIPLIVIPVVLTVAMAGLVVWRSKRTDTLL
The assay is described as follows: whole-cell competition vs 125I-rat amylin (Assay Va).
As to B1, the IC50 was found to be 9 nM.

As to B2, the concentration for half-maximal inhibition (IC50) was found to be 0.374 nM. For the molecule B3, the IC50 amounted to 0.383 nM.

With B4, the IC50 was 0.352 nM. As for B5, the IC50 was found to be 0.891 nM.

As for B6, the half-inhibitory concentration (IC50) was found to be 0.745 nM. Regarding B7, the IC50 came to 0.323 nM.

For the molecule B8, the half-inhibitory concentration (IC50) came to 0.375 nM.

As usually defined, the IC50 is the concentration needed to halve the response being measured.

The record behind these values is patent publication US20160272683A1 (Novo Nordisk, published 2016).
